Measurements reported in patent publication US20130315910A1 (Xencor, published 2013).

T1: human FcγRIIb receptor protein (R&D Systems) (human, UniProt P31994 46-217)
T1 construct: Bought protein injected over captured antibody in Biacore; also called CD32b
T1 sequence (looked up): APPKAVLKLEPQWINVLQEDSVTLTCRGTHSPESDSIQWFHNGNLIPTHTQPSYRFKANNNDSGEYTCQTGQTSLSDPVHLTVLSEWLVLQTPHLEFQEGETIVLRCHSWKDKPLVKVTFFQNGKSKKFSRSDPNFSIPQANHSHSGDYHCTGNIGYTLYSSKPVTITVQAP

T2: mFcγRIIb (Mus musculus, UniProt P08101)
T2 construct: extracellular region, C-terminal His- and GST-tag; also called mouse FcγRII
T2 sequence (receptor extracellular region, looked up): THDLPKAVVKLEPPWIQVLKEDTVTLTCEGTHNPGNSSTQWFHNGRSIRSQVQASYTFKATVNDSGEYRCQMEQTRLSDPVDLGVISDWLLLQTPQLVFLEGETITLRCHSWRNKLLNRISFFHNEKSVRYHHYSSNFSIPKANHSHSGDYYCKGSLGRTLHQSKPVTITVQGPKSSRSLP

T3: cynoFcγRIIb (Macaca fascicularis, UniProt A0A140HDP4)
T3 construct: extracellular region, C-terminal His- and GST-tag; also called cynomolgus monkey FcγRIIb
T3 sequence (receptor extracellular region): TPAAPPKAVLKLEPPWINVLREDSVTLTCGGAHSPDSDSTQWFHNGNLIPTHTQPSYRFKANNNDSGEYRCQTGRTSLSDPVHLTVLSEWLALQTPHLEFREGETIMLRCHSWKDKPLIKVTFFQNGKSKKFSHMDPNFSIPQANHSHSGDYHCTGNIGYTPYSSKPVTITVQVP

T4: human FcγRIIa (131R), His- and GST-tagged (human, UniProt P12318 34-217)
T4 construct: Expressed in HEK293T cells, purified by nickel chromatography; also called R131 FcγRIIa; not shown: 6xHis and GST tags of the pTT5 vector
T4 sequence (looked up): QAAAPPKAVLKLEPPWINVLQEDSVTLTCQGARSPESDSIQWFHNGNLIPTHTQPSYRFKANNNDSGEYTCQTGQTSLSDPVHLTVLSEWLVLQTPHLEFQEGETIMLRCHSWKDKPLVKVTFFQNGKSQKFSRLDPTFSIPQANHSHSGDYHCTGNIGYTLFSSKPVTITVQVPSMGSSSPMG

T5: human FcγRIIa (131H), His- and GST-tagged (human, UniProt P12318 34-217)
T5 construct: also called H131 FcγRIIa; HIIa; not shown: 6xHis and GST tags of the pTT5 vector
T5 sequence (looked up): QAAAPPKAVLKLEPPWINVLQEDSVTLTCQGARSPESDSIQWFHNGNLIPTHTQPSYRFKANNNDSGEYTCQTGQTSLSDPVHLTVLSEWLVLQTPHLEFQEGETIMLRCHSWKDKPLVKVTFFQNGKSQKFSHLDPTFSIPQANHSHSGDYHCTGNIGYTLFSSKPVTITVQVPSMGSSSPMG


How the values were obtained:
Assay in all cases: SPR
[1] = molecular target: T1, human FcγRIIb receptor protein (R&D …)
Protocol: (§1) Variants were screened for receptor affinity using Biacore™ technology, also referred to as Biacore herein, a surface plasmon resonance (SPR) based technology for studying biomolecular interactions in real time. SPR measurements were performed using a Biacore 3000 instrument (Biacore, Piscataway, N.J.). A protein A/G (Pierce Biotechnology) CM5 biosensor chip (Biacore) was generated using a standard primary amine coupling protocol. All measurements were performed using HBS-EP buffer (10 mM HEPES pH 7.4, 0.15 M NaCl, 3 mM EDTA, 0.005% vol/vol surfactant P20, Biacore). Antibodies at 20 nM or 50 nM in HBS-EP buffer were immobilized on the protein A/G surface and FcγRs were injected. After each cycle, the surface was regenerated by injecting glycine buffer (10 mM, pH 1.5). Data were processed by zeroing time and response before the injection of FcγR and by subtracting appropriate nonspecific signals (response of reference channel and injection of running buffer). Kinetic analyses were performed by global fitting of binding data with a 1:1 Langmuir binding model using BIAevaluation software (Biacore).

mFcγRIIb = molecular target: T2, mFcγRIIb
Protocol: as §1
(§2) Variant antibodies were tested for their affinity to mouse or cynologous monkey FcγRs using Biacore SPR as described above. Specifically, antibodies were first immobilized on a protein A/G chip to high density, and then followed by injections of the extracellular domain of the mouse or cynologous monkey FcγR of interest. Both association and dissociation phases were tracked in real time using the Biacore technology.

cynoFcγRIIb = molecular target: T3, cynoFcγRIIb
Protocol: as §1, §2

[2] = molecular target: T4, human FcγRIIa (131R), His- and …
Protocol: as §1

[3] = molecular target: T6, human FcγRI receptor protein (R&D Systems) (human, UniProt P12314 16-288)
T6 construct: also called soluble FcγRI; solFcγRI
T6 sequence (P12314 16-288 limits assumed): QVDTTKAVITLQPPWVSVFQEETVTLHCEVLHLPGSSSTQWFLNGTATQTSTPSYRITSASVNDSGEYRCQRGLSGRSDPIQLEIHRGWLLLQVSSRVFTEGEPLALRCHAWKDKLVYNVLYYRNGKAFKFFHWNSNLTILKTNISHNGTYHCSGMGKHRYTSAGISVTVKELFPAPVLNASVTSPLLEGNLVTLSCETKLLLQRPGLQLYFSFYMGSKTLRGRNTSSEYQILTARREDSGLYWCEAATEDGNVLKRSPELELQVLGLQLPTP
Protocol: as §1

[4] = molecular target: T5, human FcγRIIa (131H), His- and …
Protocol: as §1

| Binder | Fold vs WT IgG1 [1] | Kd [1] | Fold vs WT IgG1 (Kd) (mFcγRIIb) | Fold vs WT IgG1 (Kd) (cynoFcγRIIb) | Fold vs WT IgG1 [2] | Kd [2] | binding result [1] | Kd [3] | Kd [4] | binding result [2] |
| --- | --- | --- | --- | --- | --- | --- | --- | --- | --- | --- |
| H268D/L328F/I332E (antibody, human IgG1, kappa, HuAM4G7 anti-CD19 IgG1 (m1) with these Fc substitutions, EU index; copies: 2 + 2) heavy: EVQLVESGGGLVKPGGSLKLSCAASGYTFTSYVMHWVRQAPGKGLEWIGYINPYNDGTKYNEKFQGRVTISSDKSISTAYMELSSLRSEDTAMYYCARGTYYYGTRVFDYWGQGTLVTVSSASTKGPSVFPLAPSSKSTSGGTAALGCLVKDYFPEPVTVSWNSGALTSGVHTFPAVLQSSGLYSLSSVVTVPSSSLGTQTYICNVNHKPSNTKVDKKVEPKSCDKTHTCPPCPAPELLGGPSVFLFPPKPKDTLMISRTPEVTCVVVDVSDEDPEVKFNWYVDGVEVHNAKTKPREEQYNSTYRVVSVLTVLHQDWLNGKEYKCKVSNKAFPAPEEKTISKAKGQPREPQVYTLPPSREEMTKNQVSLTCLVKGFYPSDIAVEWESNGQPENNYKTTPPVLDSDGSFFLYSKLTVDKSRWQQGNVFSCSVMHEALHNHYTQKSLSLSPGK light: DIVMTQSPATLSLSPGERATLSCRSSKSLQNVNGNTYLYWFQQKPGQSPQLLIYRMSNLNSGVPDRFSGSGSGTEFTLTISSLEPEDFAVYYCMQHLEYPITFGAGTKLEIKRTVAAPSVFIFPPSDEQLKSGTASVVCLLNNFYPREAKVQWKVDNALQSGNSQESVTEQDSKDSTYSLSSTLTLSKADYEKHKVYACEVTHQGLSSPVTKSFNRGEC | 12.3 fold | 119 nM | 1.48 fold | 4.88 fold |  |  |  |  |  |  |
| L235S (antibody, human IgG1, kappa, HuAM4G7 anti-CD19 IgG1 (m1) with this Fc substitution, EU index; copies: 2 + 2) heavy: not shown light: DIVMTQSPATLSLSPGERATLSCRSSKSLQNVNGNTYLYWFQQKPGQSPQLLIYRMSNLNSGVPDRFSGSGSGTEFTLTISSLEPEDFAVYYCMQHLEYPITFGAGTKLEIKRTVAAPSVFIFPPSDEQLKSGTASVVCLLNNFYPREAKVQWKVDNALQSGNSQESVTEQDSKDSTYSLSSTLTLSKADYEKHKVYACEVTHQGLSSPVTKSFNRGEC | 0.0147 fold | 100000 nM |  |  | 0.00859 fold | 100000 nM |  |  |  |  |
| L235Q (antibody, human IgG1, kappa, HuAM4G7 anti-CD19 IgG1 (m1) with this Fc substitution, EU index; copies: 2 + 2) heavy: not shown light: DIVMTQSPATLSLSPGERATLSCRSSKSLQNVNGNTYLYWFQQKPGQSPQLLIYRMSNLNSGVPDRFSGSGSGTEFTLTISSLEPEDFAVYYCMQHLEYPITFGAGTKLEIKRTVAAPSVFIFPPSDEQLKSGTASVVCLLNNFYPREAKVQWKVDNALQSGNSQESVTEQDSKDSTYSLSSTLTLSKADYEKHKVYACEVTHQGLSSPVTKSFNRGEC |  |  |  |  | 2.04 fold | 420 nM | no binding |  |  |  |
| S239D/S267E/H268E (antibody, human IgG1, kappa, HuAM4G7 anti-CD19 IgG1 (m1) with these Fc substitutions, EU index; copies: 2 + 2) heavy: EVQLVESGGGLVKPGGSLKLSCAASGYTFTSYVMHWVRQAPGKGLEWIGYINPYNDGTKYNEKFQGRVTISSDKSISTAYMELSSLRSEDTAMYYCARGTYYYGTRVFDYWGQGTLVTVSSASTKGPSVFPLAPSSKSTSGGTAALGCLVKDYFPEPVTVSWNSGALTSGVHTFPAVLQSSGLYSLSSVVTVPSSSLGTQTYICNVNHKPSNTKVDKKVEPKSCDKTHTCPPCPAPELLGGPDVFLFPPKPKDTLMISRTPEVTCVVVDVEEEDPEVKFNWYVDGVEVHNAKTKPREEQYNSTYRVVSVLTVLHQDWLNGKEYKCKVSNKALPAPIEKTISKAKGQPREPQVYTLPPSREEMTKNQVSLTCLVKGFYPSDIAVEWESNGQPENNYKTTPPVLDSDGSFFLYSKLTVDKSRWQQGNVFSCSVMHEALHNHYTQKSLSLSPGK light: DIVMTQSPATLSLSPGERATLSCRSSKSLQNVNGNTYLYWFQQKPGQSPQLLIYRMSNLNSGVPDRFSGSGSGTEFTLTISSLEPEDFAVYYCMQHLEYPITFGAGTKLEIKRTVAAPSVFIFPPSDEQLKSGTASVVCLLNNFYPREAKVQWKVDNALQSGNSQESVTEQDSKDSTYSLSSTLTLSKADYEKHKVYACEVTHQGLSSPVTKSFNRGEC |  | 6.91 nM |  |  |  |  |  | 0.326 nM | 817 nM |  |
| L234Y (antibody, human IgG1, kappa, HuAM4G7 anti-CD19 IgG1 (m1) with this Fc substitution, EU index; copies: 2 + 2) heavy: not shown light: DIVMTQSPATLSLSPGERATLSCRSSKSLQNVNGNTYLYWFQQKPGQSPQLLIYRMSNLNSGVPDRFSGSGSGTEFTLTISSLEPEDFAVYYCMQHLEYPITFGAGTKLEIKRTVAAPSVFIFPPSDEQLKSGTASVVCLLNNFYPREAKVQWKVDNALQSGNSQESVTEQDSKDSTYSLSSTLTLSKADYEKHKVYACEVTHQGLSSPVTKSFNRGEC | 0.0237 fold | 61900 nM |  | 1.01 fold | 0.0511 fold | 16800 nM |  |  |  |  |
| L235W (antibody, human IgG1, kappa, HuAM4G7 anti-CD19 IgG1 (m1) with this Fc substitution, EU index; copies: 2 + 2) heavy: not shown light: DIVMTQSPATLSLSPGERATLSCRSSKSLQNVNGNTYLYWFQQKPGQSPQLLIYRMSNLNSGVPDRFSGSGSGTEFTLTISSLEPEDFAVYYCMQHLEYPITFGAGTKLEIKRTVAAPSVFIFPPSDEQLKSGTASVVCLLNNFYPREAKVQWKVDNALQSGNSQESVTEQDSKDSTYSLSSTLTLSKADYEKHKVYACEVTHQGLSSPVTKSFNRGEC |  |  |  | 1.44 fold |  |  | no binding |  |  | no binding |
| L235P (antibody, human IgG1, kappa, HuAM4G7 anti-CD19 IgG1 (m1) with this Fc substitution, EU index; copies: 2 + 2) heavy: not shown light: DIVMTQSPATLSLSPGERATLSCRSSKSLQNVNGNTYLYWFQQKPGQSPQLLIYRMSNLNSGVPDRFSGSGSGTEFTLTISSLEPEDFAVYYCMQHLEYPITFGAGTKLEIKRTVAAPSVFIFPPSDEQLKSGTASVVCLLNNFYPREAKVQWKVDNALQSGNSQESVTEQDSKDSTYSLSSTLTLSKADYEKHKVYACEVTHQGLSSPVTKSFNRGEC | 0.00585 fold | 251000 nM |  |  | 0.122 fold | 7010 nM |  |  |  |  |
| L235T/S267E (antibody, human IgG1, kappa, HuAM4G7 anti-CD19 IgG1 (m1) with these Fc substitutions, EU index; copies: 2 + 2) heavy: not shown light: DIVMTQSPATLSLSPGERATLSCRSSKSLQNVNGNTYLYWFQQKPGQSPQLLIYRMSNLNSGVPDRFSGSGSGTEFTLTISSLEPEDFAVYYCMQHLEYPITFGAGTKLEIKRTVAAPSVFIFPPSDEQLKSGTASVVCLLNNFYPREAKVQWKVDNALQSGNSQESVTEQDSKDSTYSLSSTLTLSKADYEKHKVYACEVTHQGLSSPVTKSFNRGEC | 2.37 fold | 619 nM |  |  | 3.06 fold | 281 nM |  |  |  |  |
| L235H (antibody, human IgG1, kappa, HuAM4G7 anti-CD19 IgG1 (m1) with this Fc substitution, EU index; copies: 2 + 2) heavy: not shown light: DIVMTQSPATLSLSPGERATLSCRSSKSLQNVNGNTYLYWFQQKPGQSPQLLIYRMSNLNSGVPDRFSGSGSGTEFTLTISSLEPEDFAVYYCMQHLEYPITFGAGTKLEIKRTVAAPSVFIFPPSDEQLKSGTASVVCLLNNFYPREAKVQWKVDNALQSGNSQESVTEQDSKDSTYSLSSTLTLSKADYEKHKVYACEVTHQGLSSPVTKSFNRGEC | 0.734 fold | 2000 nM |  | 0.832 fold | 0.756 fold | 1140 nM |  |  |  |  |
| L234V (antibody, human IgG1, kappa, HuAM4G7 anti-CD19 IgG1 (m1) with this Fc substitution, EU index; copies: 2 + 2) heavy: not shown light: DIVMTQSPATLSLSPGERATLSCRSSKSLQNVNGNTYLYWFQQKPGQSPQLLIYRMSNLNSGVPDRFSGSGSGTEFTLTISSLEPEDFAVYYCMQHLEYPITFGAGTKLEIKRTVAAPSVFIFPPSDEQLKSGTASVVCLLNNFYPREAKVQWKVDNALQSGNSQESVTEQDSKDSTYSLSSTLTLSKADYEKHKVYACEVTHQGLSSPVTKSFNRGEC | 0.456 fold | 3220 nM |  |  | 0.134 fold | 6420 nM |  |  |  |  |
